Assays:
[1] = molecular target: Gαq/i chimera; experiment: cell-based or functional assay
[2] = molecular target: Gαi1; experiment: cell-based or functional assay

B1: human RGS2 (protein, UniProt P41220 1-211, looked up)
chain: MQSAMFLAVQHDCRPMDKSAGSGHKSEEKREKMKRTLLKDWKTRLSYFLQNSSTPGKPKTGKKSKQQAFIKPSPEEAQLWSEAFDELLASKYGLAAFRAFLKSEFCEENIEFWLACEDFKKTKSPQKLSSKARKIYTDFIEKEAPKEINIDFQTKTLIAQNIQEATSGCFTTAQKRVYSLMENNSYPRFLESEFYQDLCKKPQITTEPHAT
Binder B1 has a reduction in SRE activation (SRE-luciferase reporter, CHO-D2R cells) [1] of 70% and an attenuation of SRE activation (SRE-luciferase reporter, CHO-D2R cells co-transfected with Gαi1) [2] of 25 to 30%.

— patent publication US20030119716A1, “Methods for screening, treating and diagnosing G-protein coupled receptor-related disorders and compositions thereof” (Wyeth, priority 2001, published 2003)
